Data reported in publication PMC2441640.

Key:
[1] = target: Pyst1 fused to enhanced yellow fluorescent protein (EYFP-Pyst1) (UniProt Q16828); assay: FRET or BRET
[2] = target: ORF3 protein fused to enhanced cyan fluorescent protein (ECFP-ORF3) (hepatitis E virus); assay: FRET or BRET

Chain of UniProt Q16828 (Q16828 whole entry, the tested form may be a part): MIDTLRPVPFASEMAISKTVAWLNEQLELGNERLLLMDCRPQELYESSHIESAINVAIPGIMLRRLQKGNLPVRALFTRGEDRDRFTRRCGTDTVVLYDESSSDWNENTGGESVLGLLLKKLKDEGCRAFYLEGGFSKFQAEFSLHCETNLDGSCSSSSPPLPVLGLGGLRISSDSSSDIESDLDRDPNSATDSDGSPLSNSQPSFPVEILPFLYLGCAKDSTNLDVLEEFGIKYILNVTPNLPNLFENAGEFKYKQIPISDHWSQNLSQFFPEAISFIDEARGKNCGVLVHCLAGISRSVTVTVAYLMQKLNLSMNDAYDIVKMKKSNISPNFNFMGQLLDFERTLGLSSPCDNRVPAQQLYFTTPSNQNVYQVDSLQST

ORF3 protein fused to enhanced cyan fluorescent protein (ECFP-ORF3) (natural protein)
percent FRET efficiency (region of colocalization) [1]: 27.8% | percent FRET efficiency (region of colocalization) [2]: 26.4%
